The values below come from patent publication US20190330372A1 (Novartis, published 2019).

Residue numbers refer to the chain shown, from its start. Numbers in names are those of the source. Where “and” joins values, the source holds several entries; their conditions need not be identical. Equal values may be shown once.

One assay concerns the target human kallikrein (human, UniProt P03952 20-638). Kind of assay: direct ELISA, panel 'Human Kallikrein': antigen coated on the plate, IgG titrated, fluorescence (RFU). On the procedure:
(§1) For direct coating ELISAs, antigens were immobilized on 384-well Maxisorp™ microtiter plates over night at 4° C. using the concentrations as shown in Table 5. After blocking with 5% skim milk powder in PBS (80 μl/well), 20 μl/well of Fab-containing E. coli lysates or purified antibodies at various concentrations (typically 12 points of a 1:3 titration starting at 200 nM IgG or Fab, respectively) were added to plates and incubated for 1 h at room temperature. […] Fluorescence emission at 535 nm was recorded with excitation at 430 nm. Multiple wash steps with PBS+0.05% Tween20 were performed in between individual assay steps.

A further assay deals with rabbit FXI (rabbit). Kind of assay: direct ELISA, panel 'Rabbit FXI': antigen coated on the plate, IgG titrated, AP-anti-human F(ab)2 and AttoPhos fluorescence (RFU); half-maximal binding concentration of the fit, headed 'IC50' in the drawn table; unit taken from the axis 'Conc. [nM]'. On the procedure:
as §1

The next assay has as its target T1, human plasma-derived FXI (human, UniProt P03951 19-625).
T1 construct: This is the zymogen, which has two chains; also called human FXI; Factor XI
Kind of assay: direct ELISA, panel 'Human plasma FXI': antigen coated on the plate, IgG titrated, AP-anti-human F(ab)2 and AttoPhos fluorescence (RFU); half-maximal binding concentration of the fit, headed 'IC50' in the drawn table; unit taken from the axis 'Conc. [nM]'. The protocol:
as §1
For orientation: In an ELISA, binding on a coated surface is turned into a signal by an enzyme label.

A further assay has as its target cynomolgus monkey FXI (cynomolgus monkey). Kind of assay: direct ELISA, panel 'Cynomolgus monkey FXI': antigen coated on the plate, IgG titrated, AP-anti-human F(ab)2 and AttoPhos fluorescence (RFU); half-maximal binding concentration of the fit, headed 'IC50' in the drawn table; unit taken from the axis 'Conc. [nM]'. The protocol: as §1
The target of assay [1] is T2, human plasma derived FXIa (human, UniProt P03951 19-625). Kind of assay: cell-based or functional assay.
Assay [2] addresses T2, human plasma derived FXIa. Kind of assay: cell-based or functional assay. This is another data set of the same source.
Assay [3] deals with T2, human plasma derived FXIa. Kind of assay: direct ELISA, panel 'Human plasma FXIa': antigen coated on the plate, IgG titrated, AP-anti-human F(ab)2 and AttoPhos fluorescence (RFU); half-maximal binding concentration of the fit, headed 'IC50' in the drawn table; unit taken from the axis 'Conc. [nM]'. The protocol: as §1
For another assay, the target named is human pre-kallikrein (human, UniProt P03952 20-638). As to the kind of experiment: direct ELISA, panel 'Human Pre-kallikrein': antigen coated on the plate, IgG titrated, fluorescence (RFU). The protocol:
as §1

The target in assay [4] is T2, human plasma derived FXIa. As to the kind of experiment: solution equilibrium titration (SET), IgG at 20 pM, 1:1 binding model. On the procedure: (§2) Experiments were carried out in polypropylene microtiter plates and with PBS (GIBCO 14190, pH 7.0-7.2) containing 0.5% BSA and 0.02% Tween20 as assay buffer. Serial dilutions of unlabeled FXIa antigen were prepared, starting with a concentration at least 10 times higher than the expected KD. Wells without antigen were used to determine Bₘₐₓ values; wells containing only assay buffer were used to determine background. After addition of an appropriate amount of binder (antibody concentration similar to or below the expected KD, 60 μL final volume), the mixture was incubated over night at RT.
(§3) MSD plates were coated with 1 μg/mL human plasma derived FXIa (30 μL per well). After washing the plate with PBS containing 0.05% Tween 20, the equilibrated samples were transferred to the plates and incubated for 20 min. Following incubation, 30 μL per well of the MSD-Sulfo-tag labeled detection antibody (anti-Flag M2 (Sigma) 1:2,000) was added to the washed MSD plate and incubated for 30 min at RT on an Eppendorf shaker (700 rpm).
The SET method described in Example 2 was used to determine the KD for AM4 (IgG), and compared to NOV1401, the germlined version of its parental antibody NOV1090.

The target of assay [5] is T2, human plasma derived FXIa. Kind of assay: solution equilibrium titration (SET), ECL read-out, purified Fab at 500 pM with titrated hFXIa; ± is the 95% confidence interval of the fit. On the procedure: as §2, §3
After washing the MSD plate and adding 30 μL/well MSD Read Buffer T with surfactant, electrochemiluminescence signals were detected using a Sector Imager 6000 (Meso Scale Discovery, Gaithersburg, Md., USA).

Assay [6] deals with T2, human plasma derived FXIa. Kind of assay: SET screening, KD estimate from 5 data points, unpurified Fab in bacterial lysate; ± is the 95% confidence interval of the fit. The source says: To estimate Fab KDs, bacterial lysates were screened by SET. The SET screening method (see, e.g., Della Ducata et al (2015) J Biomol Screen; 20(10):1256-67) was generally performed as described above for the SET determination method. For ranking of the matured binders by SET based on the principles described by Haenel and coworkers (Haenel et al (2005) Anal Biochem; 339(1):182-4), a constant amount of diluted BEL extract (bacterial lysate) was equilibrated over night with different concentrations of antigen.
The mixture was then transferred to MSD plates, which were previously coated with antigen (1 μg/mL human plasma FXIa), and after incubation and washing, a suitable MSD-Sulfo-tag labeled detection antibody was added (anti-Flag M2, Sigma).

Assay [7] concerns the target T2, human plasma derived FXIa. As to the kind of experiment: SET screening compared with SET KD of NOV1090 Fab.
Assay [8] addresses T2, human plasma derived FXIa. As to the kind of experiment: SET KD estimates of Fabs compared with SET KD of NOV1090 Fab.
Assay [9] deals with T2, human plasma derived FXIa. As to the kind of experiment: method not stated in the sentence (compared with the SET KD of NOV1090 Fab); NOV1401 Fab, cited for comparison with the SET KD of NOV1090 Fab.
For assay [10], the target named is T2, human plasma derived FXIa. As to the kind of experiment: direct ELISA, panel 'Human plasma FXIa': antigen coated on the plate, IgG titrated, AP-anti-human F(ab)2 and AttoPhos fluorescence (RFU); the printed IC50 cell of this row is under recheck. The protocol: as §1

As a reminder, the IC50 is the point on the concentration scale where inhibition reaches its midpoint. Usually Kd stands for the free concentration of one partner at which half of the binding sites on the other are occupied at equilibrium, for simple one-to-one binding. One may read the EC50 (read off the curve) as the concentration at which the effect is half-maximal.

Sequence of human kallikrein (P03952 20-638 limits assumed): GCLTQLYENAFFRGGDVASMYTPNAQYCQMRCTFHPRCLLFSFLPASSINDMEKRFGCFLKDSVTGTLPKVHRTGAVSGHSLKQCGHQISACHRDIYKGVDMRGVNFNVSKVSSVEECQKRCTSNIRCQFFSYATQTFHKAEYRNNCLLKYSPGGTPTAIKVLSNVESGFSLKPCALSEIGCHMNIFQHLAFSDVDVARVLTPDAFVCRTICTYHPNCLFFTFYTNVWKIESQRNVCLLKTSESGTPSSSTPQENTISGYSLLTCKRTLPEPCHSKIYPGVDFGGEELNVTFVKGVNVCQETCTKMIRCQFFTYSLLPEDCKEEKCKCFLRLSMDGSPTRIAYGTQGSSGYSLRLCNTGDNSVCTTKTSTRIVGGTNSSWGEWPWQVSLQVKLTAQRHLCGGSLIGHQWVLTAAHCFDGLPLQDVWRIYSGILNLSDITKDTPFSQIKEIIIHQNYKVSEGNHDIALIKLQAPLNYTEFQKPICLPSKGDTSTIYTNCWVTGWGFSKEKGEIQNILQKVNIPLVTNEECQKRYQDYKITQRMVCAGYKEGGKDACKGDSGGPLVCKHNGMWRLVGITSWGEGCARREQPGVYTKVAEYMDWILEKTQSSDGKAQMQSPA
Sequence of human pre-kallikrein (P03952 20-638 limits assumed): as above
Sequence of cynomolgus monkey FXI (cynomolgus monkey) (P03951 other isoform, or with tags, fused parts or gaps): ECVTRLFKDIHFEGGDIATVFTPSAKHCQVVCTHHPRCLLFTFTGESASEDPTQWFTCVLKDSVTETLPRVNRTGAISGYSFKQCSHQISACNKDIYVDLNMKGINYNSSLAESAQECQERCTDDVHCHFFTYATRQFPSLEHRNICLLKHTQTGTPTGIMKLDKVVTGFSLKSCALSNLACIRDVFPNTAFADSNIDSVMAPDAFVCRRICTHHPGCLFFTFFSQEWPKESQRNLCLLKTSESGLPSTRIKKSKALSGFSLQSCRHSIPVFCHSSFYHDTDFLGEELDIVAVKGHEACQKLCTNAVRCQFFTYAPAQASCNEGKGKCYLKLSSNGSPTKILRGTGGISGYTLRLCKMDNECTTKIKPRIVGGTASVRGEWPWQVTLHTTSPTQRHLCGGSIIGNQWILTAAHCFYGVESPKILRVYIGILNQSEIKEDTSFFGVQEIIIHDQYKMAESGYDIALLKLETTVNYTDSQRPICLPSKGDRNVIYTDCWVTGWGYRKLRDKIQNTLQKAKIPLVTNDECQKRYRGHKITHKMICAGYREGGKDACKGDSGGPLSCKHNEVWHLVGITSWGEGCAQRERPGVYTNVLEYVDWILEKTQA
T1 sequence (P03951 19-625 C226S limits assumed): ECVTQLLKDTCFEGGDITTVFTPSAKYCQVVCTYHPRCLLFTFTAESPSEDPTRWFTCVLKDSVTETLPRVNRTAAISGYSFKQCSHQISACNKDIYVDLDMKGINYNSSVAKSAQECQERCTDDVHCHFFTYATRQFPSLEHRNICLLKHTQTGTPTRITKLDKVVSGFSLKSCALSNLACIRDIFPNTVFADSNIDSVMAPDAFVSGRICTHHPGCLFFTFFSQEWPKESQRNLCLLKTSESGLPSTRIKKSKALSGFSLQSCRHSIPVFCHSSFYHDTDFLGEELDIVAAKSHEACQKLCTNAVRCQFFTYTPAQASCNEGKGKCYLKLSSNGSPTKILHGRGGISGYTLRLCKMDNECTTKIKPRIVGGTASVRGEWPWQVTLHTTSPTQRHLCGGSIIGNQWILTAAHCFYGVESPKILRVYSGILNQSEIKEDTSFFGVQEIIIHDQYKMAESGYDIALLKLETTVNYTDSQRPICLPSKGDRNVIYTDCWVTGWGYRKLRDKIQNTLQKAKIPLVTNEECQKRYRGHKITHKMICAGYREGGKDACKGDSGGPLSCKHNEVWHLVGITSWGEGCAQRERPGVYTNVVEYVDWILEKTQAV
T2 sequence (P03951 19-625 C226S limits assumed): as above

B1: AM1 (IgG) (antibody, V domains shown)
VH: QVQLLESGGGLVQPGGSLRLSCAASGFTFSTAAMSWVRQAPGKGLEWVSTIDSWGDDTDYADSVKGRFTISRDNSKNTLYLQMNSLRAEDTAVYYCARELSYLYSGYYFDYWGQGTLVTVSS
VL: DIVLTQPPSVSGAPGQRVTISCSGSSSNIGSNDVSWYQQLPGTAPKLLIYKNYNRPSGVPDRFSGSKSGTSASLAITGLQAEDEADYYCSAWDQRQFDVVFGGGTKLTVLG
Take B1: the binding result in the assay with human kallikrein and with human pre-kallikrein was “no binding (tested: about 200 nM)” each time. The IC50 with rabbit FXI worked out at 0.463 nM; with human plasma-derived FXI, 0.215 nM; in the assay with cynomolgus monkey FXI, 0.448 nM; in assay [3], 0.274 nM. In addition, the “TGA IC50” value in assay [1] is 6 nM. Also, the “TGA Residual Thrombin [nM] (%)” value in [1] was 180 nM and 37.5%. Moreover, the “TGA IC50, fold lower compared to NOV1401” value in assay [2] is around 4 fold.

B2: NOV1401 (IgG) (antibody, V domains shown)
VH: B1 VH with T50G, D52S, S53G, W54S, D56S, D57S, D59Y
VL: B1 VL with D1Q, I2S, V10A, A13T, T77S, A81S
notes: Germlined version of NOV1090, human IgG1/lambda with D265A and P329A in the Fc
In the case of B2, in assay [1], the “TGA IC50” value stood at 24 nM; the “TGA Residual Thrombin [nM] (%)” value is 159 nM and 34.4%. In [4], this molecule yielded a Kd of 0.00312 nM.

B3: NOV1090 Fab (Fab, V domains shown)
VH: B1 VH with T50G, D52S, S53G, W54S, D56S, D57S, D59Y
VL: DIVLTQPPSVSGAPGQRVTISCSGSSSNIGSNDVSWYQQLPGTAPKLLIYKNYNRPSGVPDRFSGSKSGTSASLAITGLQAEDEADYYCSAWDQRQFDVVFGGGTKLTVL
notes: Purified HuCAL Fab, at least 90% monomer; It was detected with anti-Flag M2, so it carries a Flag tag; also called anti-FXI/FXIa Fab; parental NOV1090 Fab fragment
For the molecule B3, in assay [5], the equilibrium dissociation constant (Kd) came to 0.21 nM.

B4: AM3 Fab (Fab, V domains shown)
VH: B1 VH with D52E, S53Y, W54S, G55S, D56Q, D57E, D59Y
VL: B3 VL
notes: Unpurified Fab in bacterial lysate (BEL extract), used in SET screening
For B4, in assay [6], the Kd is 0.029 nM. The “fold lower KD than NOV1090 Fab” value in assay [7] was around 7 fold. Moreover, the “fold increase in affinity over NOV1090 Fab” value (“fold increase in affinity” below) in assay [8] is around 10 fold.

B5: NOV1401 Fab (Fab, V domains shown)
VH: B1 VH with T50G, D52S, S53G, W54S, D56S, D57S, D59Y
VL: B3 VL with D1Q, I2S, V10A, A13T, T77S, A81S
notes: Fab of NOV1401, the germlined version of NOV1090 with identical CDRs
The molecule B5 registered a Kd in assay [9] of 0.305 nM.

B6: AM2 (IgG) (antibody, V domains shown)
VH: B1 VH with T50S, D52E, S53Y, W54Y, G55D, D56T, D59H
VL: B1 VL
For the molecule B6, the binding result with human kallikrein and with human pre-kallikrein was “no binding (tested: about 200 nM)” in each case. Moreover, the IC50 was determined as 0.432 nM with rabbit FXI, 0.331 nM with human plasma-derived FXI, 0.399 nM in the assay with cynomolgus monkey FXI and 0.466 nM in [3]. In addition, the “TGA IC50” value in assay [1] is 7 nM. Further, the “TGA Residual Thrombin [nM] (%)” value in assay [1] is 186 nM and 36.6%.

B7: AM2 Fab (Fab, V domains shown)
VH: B1 VH with T50S, D52E, S53Y, W54Y, G55D, D56T, D59H
VL: B3 VL
notes: as for B4
Regarding B7, the Kd in assay [6] was 0.027 nM. Further, the “fold lower KD than NOV1090 Fab” value in assay [7] was around 7 fold. In addition, in [8], the “fold increase in affinity” value is around 10 fold.

B8: NOV1090 (IgG) (antibody, V domains shown)
VH: B1 VH with T50G, D52S, S53G, W54S, D56S, D57S, D59Y
VL: B1 VL
notes: Non-germlined version of NOV1401, human IgG1/lambda; also called parental NOV1090; parental IgG
Turning to B8, the binding result in the assay with human kallikrein and with human pre-kallikrein was “no binding (tested: about 200 nM)” each time. For the same molecule, the IC50 with rabbit FXI came out at 0.504 nM; in the assay with human plasma-derived FXI it was 0.392 nM; in the assay with cynomolgus monkey FXI, 0.58 nM. In addition, the “EC50 (read off the curve)” value in assay [10] is around 0.6 nM.

B9: AM1 Fab (Fab, V domains shown)
VH: B1 VH
VL: B3 VL
notes: as for B4
B9: the Kd in assay [6] is 0.032 nM. Besides, in assay [7], the “fold lower KD than NOV1090 Fab” value is around 7 fold. The “fold increase in affinity” value in [8] is around 10 fold.
